Here are results for six substances from patent US20160272691A1, “COMPOSITIONS AND METHODS FOR TREATING CONDITIONS ASSOCIATED WITH y-HERPESVIRUSES” (NDSU RESEARCH FOUNDATION, priority 2013, published 2016).

In assay [1] the target is Bcl-XL expressed in MCF7 cells (UniProt Q07817). Briefly: cell-based or functional assay.
Assay [2] addresses T1, M11 expressed in MCF7 cells (murine γHV68) (UniProt P89884).
T1 sequence: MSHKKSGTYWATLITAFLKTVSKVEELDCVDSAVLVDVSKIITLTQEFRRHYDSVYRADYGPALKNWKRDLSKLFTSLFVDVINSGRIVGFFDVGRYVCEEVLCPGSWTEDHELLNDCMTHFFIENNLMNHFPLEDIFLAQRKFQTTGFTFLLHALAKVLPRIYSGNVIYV
The assay can be described thus: cell-based or functional assay.

Chain of Bcl-XL expressed in MCF7 cells (Q07817 whole entry): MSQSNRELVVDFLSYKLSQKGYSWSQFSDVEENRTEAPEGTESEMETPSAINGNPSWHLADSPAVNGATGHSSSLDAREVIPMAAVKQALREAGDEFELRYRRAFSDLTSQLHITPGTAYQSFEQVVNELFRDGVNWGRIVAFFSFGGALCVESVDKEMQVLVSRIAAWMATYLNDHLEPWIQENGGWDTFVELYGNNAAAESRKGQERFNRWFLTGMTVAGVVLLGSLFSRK

Regarding “Beclin 1 F123A mutant, expressed in MCF7 cells (from UniProt Q14457 1-450)”, the Bcl-XL-mediated down-regulation of autophagy (GFP-LC3 puncta per cell, MCF7) in assay [1] is 0.00246 p (t-test). Besides, the M11-mediated down-regulation of autophagy (GFP-LC3 puncta per cell, MCF7) in assay [2] was 0.0107 p (t-test).
On the same counts, the results for “Beclin 1 G120E mutant, expressed in MCF7 cells (from UniProt Q14457 1-450)” are 0.0119 p (t-test) and 0.0313 p (t-test).
Turning to “Beclin 1 G120E+D121A double mutant, expressed in MCF7 cells (from UniProt Q14457 1-450)”, the Bcl-XL-mediated down-regulation of autophagy (GFP-LC3 puncta per cell, MCF7) in assay [1] is 0.00079 p (t-test). The M11-mediated down-regulation of autophagy (GFP-LC3 puncta per cell, MCF7) in assay [2] is 0.228 p (t-test).
As for “Beclin 1 K117A mutant, expressed in MCF7 cells (from UniProt Q14457 1-450)”, the Bcl-XL-mediated down-regulation of autophagy (GFP-LC3 puncta per cell, MCF7) in assay [1] is 0.504 p (t-test). In assay [2], the M11-mediated down-regulation of autophagy (GFP-LC3 puncta per cell, MCF7) was 0.157 p (t-test).
Turning to “Beclin 1 L112A mutant, expressed in MCF7 cells (from UniProt Q14457 1-450)”, the Bcl-XL-mediated down-regulation of autophagy (GFP-LC3 puncta per cell, MCF7) in assay [1] was 0.0621 p (t-test). Also, the M11-mediated down-regulation of autophagy (GFP-LC3 puncta per cell, MCF7) in assay [2] is 0.00065 p (t-test).
On the same counts, the results for “Beclin 1 L116A mutant, expressed in MCF7 cells (from UniProt Q14457 1-450)” are 0.00212 p (t-test) and 0.00432 p (t-test).
